The target of assay [1] is T1, LRP2 CR89 Y1042W R1088D (WVWD) (Homo sapiens, UniProt P98164, R1089D/Y1043W).
T1 construct: two CR pairs from LRP2 (CR89, CR3435); made in house; host or cells: E. coli BL21(DE3) CodonPlus-RIPL, pET30(+)a
T1 sequence (P98164 1025-1102 Y1043W/R1089D): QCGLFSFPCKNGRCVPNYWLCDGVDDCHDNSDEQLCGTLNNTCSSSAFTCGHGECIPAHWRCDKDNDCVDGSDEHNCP
Put plainly: Solid phase binding assay, LRP2 CR89 mutant. The text has this:
(§1) Each amplified fragment was sequentially digested with BamHI and HindIII and then ligated into similarly digested pET30(+)a. The resulting plasmids encode proteins consisting of N-terminal hexahistidine and S-peptides fused to the CR fragment. Ligation reactions were transformed into XL-Blue MRF′ (Stratagene) by electroporation and plasmids isolated from single colonies. Three mutations, […], V1047D and R1088D, were introduced into the LRP2 CR89 expression plasmid both singly and in combination using Stratagene QuikChange II XL reagents and the primers: […]
(§2) Purified, refolded CR protein (1 μg) was bound to Nunc Maxisorp™ 96-well plates in TBS pH 8 supplemented with 5 mM CaCl2 (TBSC) overnight at 4° C. Wells were washed with TBSC and then blocked with TBSC containing 2% bovine serum albumin (BSA). RAP ligands were then incubated with the immobilized receptor at a range of concentrations for 2 hours in the above blocking buffer supplemented with 0.05% Tween-20 at room temperature. Control wells contained no added ligand. As an additional control, to determine whether the absence of calcium affected binding, 10 mM EGTA was included in the incubation medium for some samples. Wells were washed with TBSTC and bound ligands detected with polyclonal anti-RAP (BP41/42, 1:1,000, BioMarin). Excess primary antibody was removed and wells washed before incubation with the secondary antibody, HRP-conjugated goat anti rabbit IgG (Bio-Rad). After washing, TMB substrate solutions (Bio-Rad) were added to detect HRP. Color development was stopped with 1N HCl. Absorption at 450 nm was measured with a microplate spectrophotometer (Molecular Devices). Data were plotted and Kd values derived by non-linear regression with the assumption of single-site binding (GraphPad Prism).
(§3) One premise of this work was that amino acids at A, C, A′ and C′ within the calcium-binding loops of a CR pair were key determinants of binding affinity for RAP and would be similarly important for binding of RAP variants. To test this idea, mutant LRP2 CR89 were prepared in which the native, non-canonical residues at these positions were sequentially substituted with the non-native, canonical residues. As defined above, the A, C, A′, C′ string for LRP2 CR89 is YVWR. Mutants included LRP2 CR89 Y1042W (WVWR), LRP2 CR89 V1047D (YDWR), LRP2 CR89 R1088D (YVWD), LRP2 CR89 V1047D R1088D (YDWD), LRP2 CR89 Y1042W V1047D R1088D (WDWD), LRP2 CR89 Y1042W V1047D (WDWR), LRP2 CR89 Y1042W R1088D (WVWD). Binding to both RAP d3 and MegaRAP1 d3 were measured for each LRP2 CR89 mutant by solid-phase assay. Only the YVWD mutant retained significant binding to MegaRAP1 d3, with an approximate 2-fold loss of affinity relative to LRP2 CR89 (FIG. 6 and Table 3). […] The A′ position in LRP2 CR89 is a tryptophan, the canonical residue for wild-type RAP d3 binding, and was not mutated in our studies.

The target of assay [2] is T2, LRP2 CR89 Y1042W V1047D R1088D (WDWD) (Homo sapiens, UniProt P98164, R1089D/V1048D/Y1043W).
T2 construct: two CR pairs from LRP2 (CR89, CR3435); made in house; host or cells: E. coli BL21(DE3) CodonPlus-RIPL, pET30(+)a
T2 sequence (P98164 1022-1105 Y1043W/V1048D/R1089D): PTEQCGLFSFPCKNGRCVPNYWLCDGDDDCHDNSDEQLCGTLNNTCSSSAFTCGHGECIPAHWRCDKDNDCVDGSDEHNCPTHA
Put plainly: Solid phase binding assay, LRP2 CR89 mutant.
From the text: as §1, §2, §3

In the next assay the test system is CR proteins. Put plainly: Solid phase binding assay in presence of 10 mM EGTA. Further details: species or system human. On the procedure:
as §2
Next, the binding of RAP d3 and MegaRAP1 d3 proteins to LRP1 CR3-5 and LRP2 CR89 was assessed. […]

The text below walks through data of US8440629B2, “Cyclic receptor-associated protein (RAP) peptides” (Raptor Pharmaceuticals Inc., priority 2007, dated 2013).

B1: RAP d3: third domain of human RAP, amino acids 201-319 of mature RAP, bacterially expressed with hexahistidine and S-peptide tags (SEQ ID NO: 92) (protein, listed as Homo sapiens)
chain: LDRLRRVSHQGYSTEAEFEEPRVIDLWDLEQSANLTDKELEAFREELKHFEAKIEKHNHYQKQLEIAHEKLRHAESVGDGERVSRSREKHALLEGRTKELGYTVKKHLQDLSGRISRAR
modifications: hexahistidine and S-peptide tags
Consider B1, for which the “binding (in words)” value in assay [1] and in assay [2] was “small increase in binding” in each case. In the assay on CR proteins, the “effect of 10 mM EGTA on binding to CR proteins” value is given as “prevented binding”.

B2: MegaRAP1 d3: d3 of RAP variant selected on LRP2 CR89: S213T, E217K, H249Y, E251K, K256A, K270E (SEQ ID NO: 93) (protein, listed as Homo sapiens)
chain: LDRLRRVSHQGYSTEAEFEEPRVIDLWDLEQSANLTDKELEAFREELKHFKAKIEAHNHYQKQLEIAHEDLRHAESVGDGERVSRSREKHALLEGRTKELGYTVKKHLQDLSGRISRAR
In the case of B2, the “binding (in words)” value in assay [1] and in assay [2] was “failed to bind measurably” in each case. Also, the “effect of 10 mM EGTA on binding to CR proteins” value with CR proteins is recorded as “prevented binding”.
